# Tests used:
# Test in all cases: ZFP domain; assay not described
# Settings in all cases: tags: FokI C-terminal, 4-aa linker
# sca-r29b ZFP-FokI = sca-r29b ZFP-FokI (synthetic)
# sca-36a ZFP-FokI = sca-36a ZFP-FokI (synthetic)
# sca-36b ZFP-FokI = sca-36b ZFP-FokI (synthetic)
# sca-36c ZFP-FokI = sca-36c ZFP-FokI (synthetic)
# Sequence of sca-36c ZFP-FokI (synthetic) (chain, as listed by the source): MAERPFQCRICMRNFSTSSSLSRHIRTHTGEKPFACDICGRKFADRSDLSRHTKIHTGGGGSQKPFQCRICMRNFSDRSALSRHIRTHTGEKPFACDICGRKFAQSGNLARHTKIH
# Sequence of sca-r29b ZFP-FokI (synthetic) (chain, as listed by the source): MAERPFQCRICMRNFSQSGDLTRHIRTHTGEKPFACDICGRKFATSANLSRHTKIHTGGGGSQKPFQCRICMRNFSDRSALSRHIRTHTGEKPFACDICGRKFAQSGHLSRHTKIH
# Sequence of sca-36a ZFP-FokI (synthetic) (chain, as listed by the source): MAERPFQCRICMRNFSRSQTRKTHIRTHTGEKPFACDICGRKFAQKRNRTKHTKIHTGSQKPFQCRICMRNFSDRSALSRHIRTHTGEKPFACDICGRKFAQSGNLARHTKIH
# Sequence of sca-36b ZFP-FokI (synthetic) (chain, as listed by the source): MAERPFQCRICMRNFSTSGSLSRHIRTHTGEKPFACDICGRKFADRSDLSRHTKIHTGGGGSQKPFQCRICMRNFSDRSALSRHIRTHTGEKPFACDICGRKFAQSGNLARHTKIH
binder,measurement,setting,value
sca-r29b site (dsDNA) DNA 1: ACGTAGACTGAGG DNA 2: CCTCAGTCTACGT,binding result,sca-r29b ZFP-FokI,binds
sca-36a site (dsDNA) DNA 1: GAAGTCTGCCGT DNA 2: ACGGCAGACTTC,binding result,sca-36a ZFP-FokI,binds
sca-36b site (dsDNA) DNA 1: GAAGTCTGCCGTT DNA 2: AACGGCAGACTTC,binding result,sca-36b ZFP-FokI,binds
sca-36c site (dsDNA) DNA 1: GAAGTCTGCCGTT DNA 2: AACGGCAGACTTC,binding result,sca-36c ZFP-FokI,binds

# From patent US20090258363, “Targeted integration and expression of exogenous nucleic acid sequences” (Sangamo BioSciences, Inc., published 2009)
